From the RNAGym collection of RNA variant scans (doi:10.1073/pnas.2313332121)

B1: TPR t1 (parent)
chain: GACCAAUCUGCCCUCAGAGCUCGAGAACAUCUUCGGAUGCAGAGGAGGCAGGCUUCGGUGGCGCGAUAGCGCCAACGUCCUCAACCUCCAAUGCAUCCCACCACAUGAUGAUGCCUGAAGAGCCUUGGUUUUUUG

Variants of: B1
Test: polymerase ribozyme fitness, log enrichment relative to wild type (log ratio); higher = more active; in vitro selection for triplet polymerase activity
Outline: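 Mutant libraries were PCR-built and transcribed for each subunit of a heterodimeric triplet polymerase ribozyme and selected for one round in triplicate at −7 °C, frozen, before gel excision of extended constructs and streptavidin-bead capture. Input and output libraries were Illumina-sequenced, keeping genotypes with ≥10 input reads and ≥1 read per output. Fitness is a logarithmic ratio of genotype to wild-type enrichment, in base 2, using inverse-variance-weighted replicate averages.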

Row | Variant | polymerase ribozyme fitness (log ratio)
1 | GACCAAUCUGCCCUCAGAGCUCGAGAACAUCCUCGGAUGCAGAGGAGGCAGGCUUCGGUGGCUCGAUAGCGCCAACGUCCUCAACCUCCAAUGCAUCCCACCACAUGAUGAUUCCUGAAGAGCCUUGGUUUUUUG [U32C G63U G113U] | -4.99
2 | GACCAAUCUGCCCUCAGAGCUCGAGAACAUCCUCGGAUGCAGAGGAGGCAGGCUUCGGUGGCGCGAUAGCGCCAACGUCCUCAACCACCAAUGCAUCCCACCACAUGAUGAUGCCUGAAGAGCCUUGGUUUUUUG [U32C U87A] | -0.0352
3 | GACCAAUCUGCCCUCAGAGCUCGAGAACAUCAUCGGAUGCAGAGGCGGCAGGCUUCGGUGGCGUGAUAGCGCCAACGGCCUCAACCUCCAAUGCAUCCCACCACAUGAUGAUGCCUGAAGAGCCUUGGUUUUUUG [U32A A46C C64U U78G] | -4.98
4 | GACCAAUCUGCCCUCAGAGCUCGAGAACAUCCUCGGAUGCAGAGGAGGCAGGCUUCGGUGGCGCGAUACCGCCAACGUCCUCAACCUCCAAUGCAUCCCACCACAUGAUGAUGCCUGAAGAGCCUUGGUUUUUUG [U32C G69C] | -2.01
5 | GACCAAUCUGCCCUCAGAGCUCGAGAACAUCCUCGGAUGCUGAGCAGGCAGGCUUCGGUGGCGCGAUAGCGCCAACGUCCUCAACCUCCAAUGCAUCCCACCACAUGAUGAUGCGUGAAGAGCCUUGGUUUUUUG [U32C A41U G45C C115G] | -5.44
6 | GACCAAUCUGCCCUCAGAGCUCGAGAACAUCAUCGGAUGCAGAGGAGACAGGCUUCGGUGGUGCGAUAGCGCCAACGUCCUCAACCUCCAAUGCAUUCCUCCACAUGAUGAUGCCUGAAGAGCCUUGGUUUUUUG [U32A G48A C62U C97U A100U] | -7.37
7 | GACCAAUCUGCCCUCAGAGCUCGAGAACAUCCUCGGAUGCAGAGGAGGCAGGCUUCGGUGGCGCGAUAGCGCCAAUGUCCUCAACCUCCUAUGCAUCCCACCACAUGAUGAUGCCUGAAGAGCCUUGGUUUUUUG [U32C C76U A90U] | -2.2
8 | GACCAAUCUGCCCUCAGAGCUCGAGAACAUCGUGGGAUGCAGAGGAGGCAGGCUUCGGUGGCGUGAUAGCGCCAACGUCCUCAAACUCCAAUGCAUCCCACCACAUGAUUAUGCCUGAAGAGCCUUGGUUUUUUG [U32G C34G C64U C85A G110U] | -6.37
9 | GACCAAUCUGCCCUCAGAGCUCGAGAACAUCCUCGGAUGCAGAGGAGGCAGGCUUCGGUGGCGCGAUAGCGCCAACGUCCUCAACCUCCAAUGCAUCCCACCACAUGAUGAUGCCUUAAGAGCCUUGGUUUUUUG [U32C G117U] | -2.41
10 | GACCAAUCUGCCCUCAGAGCUCGAGAACAUCCUCGGAUGCAGAGGAGGCAGGCUUCGGUGGUGCGAUAGCGCCAACCUCCUCAACCUCCAAUGCAUCCCCCCACAGGAUGAUGCCUGAAGAGCCUUGGUUUUUUG [U32C C62U G77C A100C U106G] | -3.33
11 | GACCAAUCUGCCCUCAGAGCUCGAGAACAUCCUCGGAUGCAGAGGAGGCAGGCUUCGGUGGCGUGAUAGCGCCAACGUCCUCAACCUCCAAUACAUCCCACCACAUGAUGAUGGCUGAAGAGCCUUGGUUUUUGG [U32C C64U G93A C114G U134G] | -2.93
12 | GACCAAUCUGCCCUCAGAGCUCGAGAACAUCCUCGGAUGCAGAGGAGGCAGGCUUUGGUGGCGCGAUAGCGCCAACGUCCUCAACCUCCAAUGCAUCCCACCACAUGAUGAUGCCUGAAGAGCCUUGGUUUUUUG [U32C C56U] | 0.1
13 | GACCAAUCUGCCCUCAGAGCUCGAGAACAUCGUCGGAUGCAGAGGAGGCAGGCUUCGGUGGAGCGAUAGCGCCAACGUCCUCAACCUCCAAUGCAUCCCACAACAUGAUGGUGCCUGAAGAGCCUUGGUUUUUUG [U32G C62A C102A A111G] | -6.35
14 | GACCAAUCUGCCCUCAGAGCUCGAGAACAUCCUCGGAUGCAGAGGAGGCAGGCUUCGGUGGCGCGAUAGCGCCGACGUCCUCAACCUCCAAUGCAUCCCACCACAUGAUGAUGCCUGAAGAGCCUUGCUUUUUUG [U32C A74G G128C] | -2.08
15 | GACCAAUCUGCCCUCAGAGCUCGAGAACAUCACCGGAUGCAGAGGAGGCAGGCUUCGGUGGCGCGAUAGCGCCAACCUCCUCAACCUCCAAUGCAUCCCACGACAUAAUGAUGCCUGAAGGGCCUUGGUUUUUUG [U32A U33C G77C C102G G107A A121G] | -7.93
16 | GACCAAUCUGCCCUCAGAGCUCGAGAACAUCCUCGGAUGUAGAGGAGGCAGGCUUCGGUGGCGCGAUAGCGCCAACGUCCUCAACCUCCAAUGCAUCCCACCACAUGAUGAUGCCUGAAGAGCAUUGGUUUUUUG [U32C C40U C124A] | 1.21
17 | GACCAAUCUGCCCUCAGAGCUCGAGAACAUCCUCGGAUGCAGAGGAGGCAGGCUUCGGUGGCGCGAUAGCGCCAACGUCCUCAACCUCCAAUGCAUCCCACCACAUGAUGAUGCCUGAGGAGCCUUGGUUUUUUG [U32C A119G] | 0.645
18 | GACCAAUCUGCCCUCAGAGCUCGAGAACAUCUACGGAUGCAGAGGUGGCAGGCUUCGGUGGCGCGAUAGCGCCAACGUCCUCAACCUCCAAUGCAUACCACCACAUGAUGAUGCCUGAAGAGCCUUGGUUUUUUG [U33A A46U C97A] | -6.45
19 | GACCAAUCUGCCCUCAGAGCUCGAGAACAUCCUCGGAUGCUGAGGAGGCAGGCUUCGGUGGCGCGAUAGCGCCAACGUCCUCAACCUCCAAUGCAUCCCACCACAUGAUGAUGCCUGAAGAGCGUUGAUUUUUUG [U32C A41U C124G G128A] | -1.01
20 | GACCAAUCUGCCCUCAGAGCUCGAGAACAUCCUCGGAUGCAGAGGAGUCAGGCUUAGGUGGCGCGAUAGCUCCAACGUCCUCAACCUCCAAUGCAUCCCACCACAUGAUGAGGCCUGAAGAGCCUUGGUUUUUUG [U32C G48U C56A G71U U112G] | -4.24
21 | GACCAAUCUGCCCUCAGAGCUCGAGAACAUCCUCGGAUGCAGAGGAGACAGGCUUCGGUGGCGCGAUAGCGCCAACGUCCUCAACCUCCAAUGCAUCCCACAACAUGAUGAUGCCUGAAGAGUCUUGGUUUUUUG [U32C G48A C102A C123U] | -2.5
